4 substances from patent US20230357342A1 can be followed below.

Assay [1] addresses Fc fused human IL-18BP isoform a (IL-18BPa) (human) (UniProt O95998). Put plainly: SPR, Fc-IL-18BPa captured via anti-human IgG, IL-18 as analyte, 1:1 model. A general note: Surface plasmon resonance follows binding to a sensor surface in real time, without labels.
The target of assay [2] is His-tagged human IL-18BP (human) (UniProt O95998). Put plainly: alphaLISA of free IL-18BP after 1 h with titrated IL-18.
The target of assay [3] is modified IL-18 polypeptide SEQ ID NO: 219 (V11I, C38A, K53A, C76A, G108A, C127A) (human) (UniProt Q14116). The assay can be described thus: cell-based or functional assay.
Assay [4] addresses modified IL-18 polypeptide SEQ ID NO: 9 (E6K, C38A, K53A, C68A, D98C) (human) (UniProt Q14116). The assay can be described thus: cell-based or functional assay.
The target of assay [5] is modified IL-18 polypeptide SEQ ID NO: 59 (E6K, C38A, K53A) (human) (UniProt Q14116). Put plainly: cell-based or functional assay.
Assay [6] has as its target PEGylated modified IL-18 polypeptide SEQ ID NO: 5 + PEG (E6K, V11I, C38A, K53A, T63A, C68A, C76A, C127A, M86C-30kPEG) (human) (UniProt Q14116). The assay can be described thus: cell-based or functional assay.
Assay [7] has as its target modified IL-18 polypeptide SEQ ID NO: 204 (V11I, C38A, K53A, C76A, C127A) (human) (UniProt Q14116). The assay can be described thus: cell-based or functional assay.
In assay [8] the target is modified IL-18 polypeptide SEQ ID NO: 4 (E6K, C38A, K53A, C68A, M86C) (human) (UniProt Q14116). Put plainly: cell-based or functional assay.
The target in assay [9] is modified IL-18 polypeptide SEQ ID NO: 57 (E6K, C38S, K53A) (human) (UniProt Q14116). The assay can be described thus: cell-based or functional assay.
Assay [10] addresses PEGylated modified IL-18 polypeptide SEQ ID NO: 4 + PEG (E6K, C38A, K53A, C68A, M86C-30kPEG) (human) (UniProt Q14116). Put plainly: cell-based or functional assay.
The target of assay [11] is modified IL-18 polypeptide SEQ ID NO: 214 (V11I, D37A, C38A, K53A, C76A, C127A) (human) (UniProt Q14116). Put plainly: cell-based or functional assay.
Assay [12] addresses modified IL-18 polypeptide SEQ ID NO: 28 (E6K, C38A, K53A, T63A, C76A, C127A) (human) (UniProt Q14116). Put plainly: cell-based or functional assay.
Assay [13] deals with PEGylated modified IL-18 polypeptide SEQ ID NO: 9 + PEG (E6K, C38A, K53A, C68A, D98C-30kPEG) (human) (UniProt Q14116). The assay can be described thus: cell-based or functional assay.
Assay [14] concerns the target modified IL-18 polypeptide SEQ ID NO: 8 (E6K, V11I, C38A, K53A, T63A, C68A, C76A, T95C, C127A) (human) (UniProt Q14116). The assay can be described thus: cell-based or functional assay.
Assay [15] addresses modified IL-18 polypeptide SEQ ID NO: 6 (E6K, V11I, C38A, K53A, T63A, C68A, C76A, D98C, C127A) (human) (UniProt Q14116). The assay can be described thus: cell-based or functional assay.
In assay [16] the target is modified IL-18 polypeptide SEQ ID NO: 224 (V11I, C38A, C76A, Q103K, C127A) (human) (UniProt Q14116). The assay can be described thus: cell-based or functional assay.
In assay [17] the target is modified IL-18 polypeptide SEQ ID NO: 222 (K8R, V11I, C38A, C76A, Q103E, C127A) (human) (UniProt Q14116). Put plainly: cell-based or functional assay.
Assay [18] addresses modified IL-18 polypeptide SEQ ID NO: 223 (K8E, V11I, C38A, C76A, Q103R, C127A) (human) (UniProt Q14116). The assay can be described thus: cell-based or functional assay.
Assay [19] deals with modified IL-18 polypeptide SEQ ID NO: 60 (E6K, C38Q, K53A) (human) (UniProt Q14116). The assay can be described thus: cell-based or functional assay.
Assay [20] has as its target PEGylated modified IL-18 polypeptide SEQ ID NO: 6 + PEG (E6K, V11I, C38A, K53A, T63A, C68A, C76A, C127A, D98C-30kPEG) (human) (UniProt Q14116). Put plainly: cell-based or functional assay.
Assay [21] has as its target modified IL-18 polypeptide SEQ ID NO: 221 (V11I, C38A, K53A, C76A, D110A, C127A) (human) (UniProt Q14116). Put plainly: cell-based or functional assay.
For assay [22], the target named is modified IL-18 polypeptide SEQ ID NO: 225 (V11I, C38A, S55H, C76A, C127A) (human) (UniProt Q14116). The assay can be described thus: cell-based or functional assay.
The target of assay [23] is modified IL-18 polypeptide SEQ ID NO: 218 (V11I, C38A, K53A, C76A, C127A, D132A) (human) (UniProt Q14116). The assay can be described thus: cell-based or functional assay.
For assay [24], the target named is modified IL-18 polypeptide SEQ ID NO: 5 (E6K, V11I, C38A, K53A, T63A, C68A, C76A, M86C, C127A) (human) (UniProt Q14116). Put plainly: cell-based or functional assay.
Assay [25] deals with modified IL-18 polypeptide SEQ ID NO: 208 (V11I, C38A, K53A, D54A, C76A, C127A) (human) (UniProt Q14116). Put plainly: cell-based or functional assay.
In assay [26] the target is modified IL-18 polypeptide SEQ ID NO: 61 (E6K, C38A, K53A, C76A) (human) (UniProt Q14116). Put plainly: cell-based or functional assay.
The target of assay [27] is modified IL-18 polypeptide SEQ ID NO: 30 (E6K, V11I, C38A, K53A, T63A, C76A, C127A) (human) (UniProt Q14116). Put plainly: cell-based or functional assay.
Assay [28] addresses modified IL-18 polypeptide SEQ ID NO: 210 (V11I, E31A, C38A, K53A, C76A, C127A) (human) (UniProt Q14116). Put plainly: cell-based or functional assay.
Assay [29] deals with modified IL-18 polypeptide SEQ ID NO: 215 (V11I, E31A, D37A, C38A, K53A, C76A, C127A) (human) (UniProt Q14116). The assay can be described thus: cell-based or functional assay.
The target in assay [30] is modified IL-18 polypeptide SEQ ID NO: 217 (V11I, C38A, N41A, K53A, C76A, C127A) (human) (UniProt Q14116). The assay can be described thus: cell-based or functional assay.
The target in assay [31] is modified IL-18 polypeptide SEQ ID NO: 211 (V11I, T34A, C38A, K53A, C76A, C127A) (human) (UniProt Q14116). Put plainly: cell-based or functional assay.
Assay [32] concerns the target modified IL-18 polypeptide SEQ ID NO: 229 (V11I, C38A, C76A, S105K, C127A) (human) (UniProt Q14116). The assay can be described thus: cell-based or functional assay.
The target of assay [33] is modified IL-18 polypeptide SEQ ID NO: 62 (E6K, C38A, K53A, C127A) (human) (UniProt Q14116). Put plainly: cell-based or functional assay.
Assay [34] deals with modified IL-18 polypeptide SEQ ID NO: 227 (V11I, C38A, S55T, C76A, C127A) (human) (UniProt Q14116). The assay can be described thus: cell-based or functional assay.
Assay [35] concerns the target modified IL-18 polypeptide SEQ ID NO: 226 (V11I, C38A, S55R, C76A, C127A) (human) (UniProt Q14116). Put plainly: cell-based or functional assay.
The target in assay [36] is modified IL-18 polypeptide SEQ ID NO: 220 (V11I, C38A, K53A, C76A, H109A, C127A) (human) (UniProt Q14116). The assay can be described thus: cell-based or functional assay.
For assay [37], the target named is modified IL-18 polypeptide SEQ ID NO: 213 (V11I, S36A, C38A, K53A, C76A, C127A) (human) (UniProt Q14116). Put plainly: cell-based or functional assay.
Assay [38] concerns the target modified IL-18 polypeptide SEQ ID NO: 205 (V11I, C38A, K53A, T63A, C76A, C127A) (human) (UniProt Q14116). The assay can be described thus: cell-based or functional assay.
The target in assay [39] is modified IL-18 polypeptide SEQ ID NO: 212 (V11I, D35A, C38A, K53A, C76A, C127A) (human) (UniProt Q14116). Put plainly: cell-based or functional assay.
Assay [40] addresses modified IL-18 polypeptide SEQ ID NO: 207 (V11I, C38A, M51G, K53A, C76A, C127A) (human) (UniProt Q14116). Put plainly: cell-based or functional assay.
Assay [41] concerns the target modified IL-18 polypeptide SEQ ID NO: 11 (E6K, V11I, C38A, K53A, C76A, C127A) (human) (UniProt Q14116). Put plainly: cell-based or functional assay.
Assay [42] deals with modified IL-18 polypeptide SEQ ID NO: 209 (F2A, V11I, C38A, K53A, C76A, C127A) (human) (UniProt Q14116). The assay can be described thus: cell-based or functional assay.
Assay [43] has as its target modified IL-18 polypeptide SEQ ID NO: 206 (V11I, C38A, K53A, S55A, C76A, C127A) (human) (UniProt Q14116). Put plainly: cell-based or functional assay.
In assay [44] the target is modified IL-18 polypeptide SEQ ID NO: 63 (E6K, C38A, K53A, C76A, C127A) (human) (UniProt Q14116). Put plainly: cell-based or functional assay.
For assay [45], the target named is modified IL-18 polypeptide SEQ ID NO: 228 (V11I, C38A, C76A, S105I, C127A) (human) (UniProt Q14116). Put plainly: cell-based or functional assay.
The target of assay [46] is modified IL-18 polypeptide SEQ ID NO: 216 (V11I, C38A, D40A, K53A, C76A, C127A) (human) (UniProt Q14116). Put plainly: cell-based or functional assay.
Assay [47] concerns the target wild type IL-18 (SEQ ID NO: 1, native sequence) (human) (UniProt Q14116). Put plainly: cell-based or functional assay.

Sequence of wild type IL-18 (SEQ ID NO: 1, native sequence) (Q14116 37-193): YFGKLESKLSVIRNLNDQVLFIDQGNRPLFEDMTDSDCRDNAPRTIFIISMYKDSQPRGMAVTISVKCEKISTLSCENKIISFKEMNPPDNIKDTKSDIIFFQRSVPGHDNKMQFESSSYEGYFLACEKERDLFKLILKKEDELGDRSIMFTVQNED
Sequence of Fc fused human IL-18BP isoform a (IL-18BPa) (human) (O95998 31-194): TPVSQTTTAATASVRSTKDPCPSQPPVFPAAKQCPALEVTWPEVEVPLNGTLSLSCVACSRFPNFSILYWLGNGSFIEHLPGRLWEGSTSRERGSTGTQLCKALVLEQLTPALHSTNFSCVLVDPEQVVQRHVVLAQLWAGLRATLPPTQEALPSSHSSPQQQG
Sequence of modified IL-18 polypeptide SEQ ID NO: 210 (V11I, E31A, C38A, K53A, C76A, C127A) (human) (Q14116 37-193 V47I/E67A/C74A/K89A/C112A/C163A): as the sequence (Q14116 37-193) above, with V11I, E31A, C38A, K53A, C76A, C127A counted along it
Sequence of modified IL-18 polypeptide SEQ ID NO: 204 (V11I, C38A, K53A, C76A, C127A) (human) (Q14116 37-193 V47I/C74A/K89A/C112A/C163A): as the sequence (Q14116 37-193) above, with V11I, C38A, K53A, C76A, C127A counted along it
Sequence of modified IL-18 polypeptide SEQ ID NO: 220 (V11I, C38A, K53A, C76A, H109A, C127A) (human) (Q14116 37-193 V47I/C74A/K89A/C112A/H145A/C163A): as the sequence (Q14116 37-193) above, with V11I, C38A, K53A, C76A, H109A, C127A counted along it
Sequence of modified IL-18 polypeptide SEQ ID NO: 216 (V11I, C38A, D40A, K53A, C76A, C127A) (human) (Q14116 37-193 V47I/C74A/D76A/K89A/C112A/C163A): as the sequence (Q14116 37-193) above, with V11I, C38A, D40A, K53A, C76A, C127A counted along it
Sequence of modified IL-18 polypeptide SEQ ID NO: 63 (E6K, C38A, K53A, C76A, C127A) (human) (Q14116 other isoform, or with tags, fused parts or gaps C38A K53A C76A C127A C38A K53A C76A C127A): as the sequence (Q14116 37-193) above, with E6K, C38A, K53A, C76A, C127A counted along it
Sequence of modified IL-18 polypeptide SEQ ID NO: 217 (V11I, C38A, N41A, K53A, C76A, C127A) (human) (Q14116 37-193 V47I/C74A/N77A/K89A/C112A/C163A): as the sequence (Q14116 37-193) above, with V11I, C38A, N41A, K53A, C76A, C127A counted along it
Sequence of wild type IL-18 (SEQ ID NO: 1, native sequence) (human) (Q14116 37-193): as the sequence (Q14116 37-193) above
Sequence of modified IL-18 polypeptide SEQ ID NO: 214 (V11I, D37A, C38A, K53A, C76A, C127A) (human) (Q14116 37-193 V47I/D73A/C74A/K89A/C112A/C163A): as the sequence (Q14116 37-193) above, with V11I, D37A, C38A, K53A, C76A, C127A counted along it
Sequence of modified IL-18 polypeptide SEQ ID NO: 205 (V11I, C38A, K53A, T63A, C76A, C127A) (human) (Q14116 37-193 V47I/C74A/K89A/T99A/C112A/C163A): as the sequence (Q14116 37-193) above, with V11I, C38A, K53A, T63A, C76A, C127A counted along it
Sequence of modified IL-18 polypeptide SEQ ID NO: 226 (V11I, C38A, S55R, C76A, C127A) (human) (Q14116 37-193 V47I/C74A/S91R/C112A/C163A): as the sequence (Q14116 37-193) above, with V11I, C38A, S55R, C76A, C127A counted along it
Sequence of modified IL-18 polypeptide SEQ ID NO: 221 (V11I, C38A, K53A, C76A, D110A, C127A) (human) (Q14116 37-193 V47I/C74A/K89A/C112A/D146A/C163A): as the sequence (Q14116 37-193) above, with V11I, C38A, K53A, C76A, D110A, C127A counted along it
Sequence of PEGylated modified IL-18 polypeptide SEQ ID NO: 4 + PEG (E6K, C38A, K53A, C68A, M86C-30kPEG) (human) (Q14116 other isoform, or with tags, fused parts or gaps C38A K53A C68A M86C C38A K53A C68A M86C): as the sequence (Q14116 37-193) above, with E6K, C38A, K53A, C68A, M86C counted along it
Sequence of modified IL-18 polypeptide SEQ ID NO: 4 (E6K, C38A, K53A, C68A, M86C) (human) (Q14116 other isoform, or with tags, fused parts or gaps C38A K53A C68A M86C C38A K53A C68A M86C): as the sequence (Q14116 37-193) above, with E6K, C38A, K53A, C68A, M86C counted along it
Sequence of modified IL-18 polypeptide SEQ ID NO: 28 (E6K, C38A, K53A, T63A, C76A, C127A) (human) (Q14116 other isoform, or with tags, fused parts or gaps C38A K53A T63A C76A C127A C38A K53A T63A C76A C127A): as the sequence (Q14116 37-193) above, with E6K, C38A, K53A, T63A, C76A, C127A counted along it
Sequence of modified IL-18 polypeptide SEQ ID NO: 8 (E6K, V11I, C38A, K53A, T63A, C68A, C76A, T95C, C127A) (human) (Q14116 other isoform, or with tags, fused parts or gaps with the stated changes): as the sequence (Q14116 37-193) above, with E6K, V11I, C38A, K53A, T63A, C68A, C76A, T95C, C127A counted along it
Sequence of modified IL-18 polypeptide SEQ ID NO: 207 (V11I, C38A, M51G, K53A, C76A, C127A) (human) (Q14116 37-193 V47I/C74A/M87G/K89A/C112A/C163A): as the sequence (Q14116 37-193) above, with V11I, C38A, M51G, K53A, C76A, C127A counted along it
Sequence of modified IL-18 polypeptide SEQ ID NO: 222 (K8R, V11I, C38A, C76A, Q103E, C127A) (human) (Q14116 other isoform, or with tags, fused parts or gaps V11I C38A C76A Q103E C127A V11I C38A C76A Q103E C127A): as the sequence (Q14116 37-193) above, with K8R, V11I, C38A, C76A, Q103E, C127A counted along it
Sequence of modified IL-18 polypeptide SEQ ID NO: 224 (V11I, C38A, C76A, Q103K, C127A) (human) (Q14116 37-193 V47I/C74A/C112A/Q139K/C163A): as the sequence (Q14116 37-193) above, with V11I, C38A, C76A, Q103K, C127A counted along it
Sequence of modified IL-18 polypeptide SEQ ID NO: 213 (V11I, S36A, C38A, K53A, C76A, C127A) (human) (Q14116 37-193 V47I/S72A/C74A/K89A/C112A/C163A): as the sequence (Q14116 37-193) above, with V11I, S36A, C38A, K53A, C76A, C127A counted along it
Sequence of PEGylated modified IL-18 polypeptide SEQ ID NO: 9 + PEG (E6K, C38A, K53A, C68A, D98C-30kPEG) (human) (Q14116 other isoform, or with tags, fused parts or gaps C38A K53A C68A D98C C38A K53A C68A D98C): as the sequence (Q14116 37-193) above, with E6K, C38A, K53A, C68A, D98C counted along it
Sequence of modified IL-18 polypeptide SEQ ID NO: 9 (E6K, C38A, K53A, C68A, D98C) (human) (Q14116 other isoform, or with tags, fused parts or gaps C38A K53A C68A D98C C38A K53A C68A D98C): as the sequence (Q14116 37-193) above, with E6K, C38A, K53A, C68A, D98C counted along it
Sequence of modified IL-18 polypeptide SEQ ID NO: 59 (E6K, C38A, K53A) (human) (Q14116 other isoform, or with tags, fused parts or gaps C38A K53A C38A K53A): as the sequence (Q14116 37-193) above, with E6K, C38A, K53A counted along it
Sequence of modified IL-18 polypeptide SEQ ID NO: 225 (V11I, C38A, S55H, C76A, C127A) (human) (Q14116 37-193 V47I/C74A/S91H/C112A/C163A): as the sequence (Q14116 37-193) above, with V11I, C38A, S55H, C76A, C127A counted along it
Sequence of modified IL-18 polypeptide SEQ ID NO: 11 (E6K, V11I, C38A, K53A, C76A, C127A) (human) (Q14116 other isoform, or with tags, fused parts or gaps V11I C38A K53A C76A C127A V11I C38A K53A C76A C127A): as the sequence (Q14116 37-193) above, with E6K, V11I, C38A, K53A, C76A, C127A counted along it
Sequence of modified IL-18 polypeptide SEQ ID NO: 212 (V11I, D35A, C38A, K53A, C76A, C127A) (human) (Q14116 37-193 V47I/D71A/C74A/K89A/C112A/C163A): as the sequence (Q14116 37-193) above, with V11I, D35A, C38A, K53A, C76A, C127A counted along it
Sequence of modified IL-18 polypeptide SEQ ID NO: 60 (E6K, C38Q, K53A) (human) (Q14116 other isoform, or with tags, fused parts or gaps C38Q K53A C38Q K53A): as the sequence (Q14116 37-193) above, with E6K, C38Q, K53A counted along it

One may read the Kd as the constant that tells how readily two partners part at equilibrium. One may read the koff as a measure of how fast the partners let go of each other. Low values mean a long-lived complex, high ones a short-lived complex. For orientation: kon means a measure of how fast the partners come together. Low values mean slow association, high ones fast association. As for “wild type IL-18 (SEQ ID NO: 1, native sequence) (from UniProt Q14116 37-193) (ligand)”, in assay [1], the Kd amounted to 0.27 nM, the koff was 0.000383 s⁻¹ and the association rate constant (kon) amounted to 1.49e+06 M⁻¹ s⁻¹. This substance also came in with a Kd in assay [2] of 0.414 nM.

Turning to “Fc fused human IL-18BP isoform a (IL-18BPa) (from UniProt O95998 31-194) (Fc fusion)”, the IC50, IFNγ secretion by NK-92 cells was 3.98 nM in assay [3]; 961 nM in assay [4]; 654 nM in [5]; 12 nM in assay [6]; 1.62 nM in assay [7]; 396 nM in [8]. The IC50, IFNγ secretion by NK-92 cells in assay [9] turned out to be 146 nM; in [10] it was 34 nM; in [11] it was 2.22 nM; in assay [12], 233 nM; in [13], 27.2 nM; in [14], 522 nM. The IC50, IFNγ secretion by NK-92 cells turned out to be 5.85 nM in [15]; 0.823 nM in assay [16]; 1.07 nM in assay [17]; 7.29 nM in assay [18]; 780 nM in [19]; 14.3 nM in assay [20]. For the same substance, the IC50, IFNγ secretion by NK-92 cells in assay [21] amounted to 3.18 nM; in [22], 0.456 nM; in assay [23], 6.08 nM; in assay [24], 62.4 nM; in assay [25], 47.6 nM; in assay [26], 779 nM. Further, the IC50, IFNγ secretion by NK-92 cells in [27] came out at 488 nM; in [28], 1.17 nM; in assay [29], 3.71 nM; in assay [30], 0.681 nM; in [31] it was 21.3 nM; in [32], 0.176 nM. The IC50, IFNγ secretion by NK-92 cells in assay [33] is 284 nM; in assay [34], 0.44 nM; in assay [35], 0.885 nM; in [36] it was 1.81 nM; in assay [37], 7.85 nM; in assay [38], 7.52 nM. Also, the IC50, IFNγ secretion by NK-92 cells in assay [39] came to 3.62 nM; in assay [40], 733 nM; in assay [41], 532 nM; in assay [42], 5.05 nM; in assay [43], 10.2 nM; in assay [44] it was 286 nM. Further, the IC50, IFNγ secretion by NK-92 cells stood at 0.809 nM in assay [45], 3.23 nM in [46] and 0.787 nM in [47].

In assay [2], “modified IL-18 polypeptide SEQ ID NO: 59 (E6K, C38A, K53A) (from UniProt Q14116 37-193) (ligand)” gave a Kd of 36 nM.

In assay [1], “modified IL-18 polypeptide SEQ ID NO: 57 (E6K, C38S, K53A) (from UniProt Q14116 37-193) (ligand)” registered a dissociation constant Kd of 2.72 nM, an off-rate (koff) of 0.0031 s⁻¹ and a kon of 1.14e+06 M⁻¹ s⁻¹.
